The source of these data is patent US20100015637A1 (AbbVie / Abbott, published 2010).

In general, % Inhibition refers to the share of the control response that was lost under treatment.

The target in experiment [1] is human PlGF-1 comprising amino acids 1-137 produced in human embryonic kidney cells (human) (UniProt P49763). Description: Format 3 Quantikine ELISA, capture MAb264, detection Pb264; sFlt-1 920 pmol/L (ratio 30). In general terms: ELISA stands for enzyme-linked immunosorbent assay.
For experiment [2] the target is unchanged. Briefly: Format 2 …, capture MAb264, detection Pb264; sFlt-1 920 pmol/L (ratio 30).
Experiment [3] has the same target. Description: Format 3 Quantikine ELISA, capture MAb264, detection Pb264; sFlt-1 307 pmol/L (ratio 10).
The target is the same in experiment [4]. Description: Format 1 …, capture 2-826-335, detection 1-255-713; sFlt-1 0 pmol/L (ratio 0).
For experiment [5] the target is unchanged. Description: Format 3 Quantikine ELISA, capture MAb264, detection Pb264; sFlt-1 1227 pmol/L (ratio 40).
In experiment [6] the target is T1, human PlGF-1 comprising amino acids 1-137 produced in human embryonic kidney cells (human, UniProt P49763 19-221).
T1 construct: Mature human PlGF-1 with 6xHis tag; also called HEK (1-137); full length HEK human PlGF-1 (1-137)
T1 sequence: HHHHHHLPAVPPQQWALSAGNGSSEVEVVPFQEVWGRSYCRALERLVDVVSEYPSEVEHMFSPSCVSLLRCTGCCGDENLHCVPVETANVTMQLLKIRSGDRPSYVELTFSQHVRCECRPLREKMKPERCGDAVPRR
Briefly: … sandwich, capture MAb255, detection MAb826; antigen 250 pg/mL. The essentials: (§1)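 In a sandwich immunoassay, human PlGF-1 antigen preparations, including recombinant forms expressed in CHO cells, were tested at 0 to 1500 pg/mL. Magnetic microparticles carried a monoclonal anti-human PlGF-1 capture antibody, attached by passive coating and EDAC cross-linking, and a second monoclonal anti-human PlGF-1 antibody labeled with acridinium ester served for detection. At each antigen level, the chemiluminescent signal was read in relative light units (RLU).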

Experiment [7] deals with T2, CHO human PlGF-1 fragment (comprising amino acids 17-131; ATCC PTA-8540) (human, UniProt P49763 35-221).
T2 sequence: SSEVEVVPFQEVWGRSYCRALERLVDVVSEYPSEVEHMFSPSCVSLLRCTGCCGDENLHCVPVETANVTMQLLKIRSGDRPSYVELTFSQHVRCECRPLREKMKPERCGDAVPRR
Described as above. The essentials:
as §1

The target of experiment [8] is T3, human PlGF-1 fragment (comprising amino acids 17-131) produced in human embryonic kidney cells (human, UniProt P49763 35-221).
T3 sequence: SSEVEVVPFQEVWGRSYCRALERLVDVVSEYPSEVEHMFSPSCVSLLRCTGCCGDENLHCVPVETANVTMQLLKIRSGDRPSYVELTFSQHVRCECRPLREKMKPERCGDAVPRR
The description is as above. The essentials: as §1

Experiment [9] has as its target T4, CHO human PlGF-1 comprising amino acids 1-137 (human PlGF-1-His (1-131), CHO 6305) (human, UniProt P49763 19-221, N-glycans at N21 (completely glycosylated) and N89 (partially glycosylated)).
T4 construct: Mature human PlGF-1 with 6xHis tag (137 amino acids); also called CHO (1-137)
T4 sequence: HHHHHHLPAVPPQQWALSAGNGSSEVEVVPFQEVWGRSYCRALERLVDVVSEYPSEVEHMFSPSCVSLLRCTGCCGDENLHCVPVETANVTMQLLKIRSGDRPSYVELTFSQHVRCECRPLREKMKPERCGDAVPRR
Description: … sandwich, capture MAb255, detection pAb264; antigen 60 pg/mL.

The target in experiment [10] is T1, human PlGF-1 comprising amino acids …. The description is as above.
Experiment [11] addresses T2, CHO human PlGF-1 fragment (comprising …). The description is as above.
In experiment [12] the target is T3, human PlGF-1 fragment (comprising amino …). The experiment is described as above.
Experiment [13] has as its target recombinant human PlGF-1 (comprising amino acids 1-131) expressed in E. coli (R&D Systems) (human) (UniProt P49763). Briefly: … sandwich, capture MAb255, detection MAb826; antigen 60 pg/mL.
For experiment [14] the target is unchanged. Description: … sandwich, capture MAb255, detection pAb264; antigen 15 pg/mL.
Experiment [15] has the same target. Description: … sandwich, capture MAb255, detection pAb264; antigen 0 pg/mL (blank).
Experiment [16] deals with T4, CHO human PlGF-1 comprising amino acids …. Description: … sandwich, capture MAb255, detection pAb264; antigen 250 pg/mL.
Experiment [17] deals with T1, human PlGF-1 comprising amino acids …. Described as above.
Experiment [18] addresses T2, CHO human PlGF-1 fragment (comprising …). Described as above.
The target of experiment [19] is T3, human PlGF-1 fragment (comprising amino …). Described as above.

Take “native sFlt-1, isolated from human placental tissue (from UniProt P17948 27-687) (receptor)”: the % Inhibition in experiment [1] amounted to 45%; in [2], 91.3%; in [3], 32.6%; in experiment [4], 0%; in experiment [5], 51.8%. The PlGF-1 Measured was 476 pg/mL in experiment [1]; 68.2 pg/mL in experiment [2]; 583 pg/mL in experiment [3]; 1020 pg/mL in [4]; 417 pg/mL in experiment [5].

B1: monoclonal antibody 1-255-713 (produced by murine hybridoma cell line 1-255-713, ATCC PTA-8536) (antibody, mouse IgG2a, V domains shown)
VH: QVHLQQSGAELMKPGASVKISCKATGYTFSSYWIEWVKQRPGHGLEWIGEILPGSVSNNFNEKFKDKATLTADPSSNTAYIQVSSLTSEDSAVYYCARSTGFYYGGNYFDHWGQGTTLAVSS
VL: DVVMTQTPLSLPVSPGDQASISCRSSQSLVHSNGHTYLHWYLQKPGQSPKLLIYKVSNRFSGVPDRVSGSGSGTDFTLKISRVEAEDLGVYFCSQSTHVPPTFGGGTKLEIKR
notes: also called MAb255
Regarding B1, the RLU amounted to 367000 RLU in [6]; 144000 RLU in experiment [7]; 207000 RLU in experiment [8]; 71600 RLU in experiment [9]; 165000 RLU in experiment [10]; 81200 RLU in experiment [11]. Further, the RLU worked out at 107000 RLU in experiment [12]; 83200 RLU in experiment [13]; 47200 RLU in [14]; 14300 RLU in experiment [15]; 226000 RLU in experiment [16]; 559000 RLU in [17]. For the same molecule, the values for the RLU in [18] and in experiment [19] were 283000 RLU and 363000 RLU, respectively.
